The results in this text go back to patent publication US20180057888A1 (University of Texas, published 2018).

The target of this experiment is RNA Polymerase II (RNAPII), phospho-Ser2 C-terminal domain (pS2-CTD) (UniProt P24928 1-1970). The experiment can be described thus: co-immunoprecipitation with anti-c-myc antibody, Western blot for RNAPII. As for the experimental part: Whole-cell lysates and nuclear extracts were prepared as previously described (Morales et al., 2014). See Supplementary Table S2 for a list of specific antibodies and dilutions used. Protein concentrations were determined by BCA Assay following manufacturer's instructions (Thermo Scientific). Normalized protein samples were separated on denaturing gradient gels (4-20% from BioRad) and were transferred to PVDF membranes for immunoblotting. After transfer, the membranes were first blocked with 1× Sigma Blocking Buffer for an hour at room temperature. The membranes were then incubated with the indicated primary antibodies diluted in 1× Sigma Blocking Buffer at 4° C. overnight. After this step, the membranes were washed with PBST (3×, 10 minutes each). HRP-conjugated secondary antibodies were diluted in 1× Sigma Blocking Buffer and incubated with the membranes at room temperature for 1 hr. […]
Log phase cells were plated in 10-cm dishes, and incubated after transfection with either empty pCMV-myc vector, myc-tagged wild-type K-H or myc-tagged mutant K-H (R106A) constructs for 48 hr using Lipofectamine 2000. […] Co-immunoprecipitated proteins (e.g., RNAPII) were analyzed by Western blot as previously described.

B1: myc-tagged mutant K-H (R106A) (other)
chain: MSSFSESALEKKLSELSNSQQSVQTLSLWLIHHRKHAGPIVSVWHRELRKAKSNRKLTFLYLANDVIQNSKRKGPEFTREFESVLVDAFSHVAREADEGCKKPLEALLNIWQERSVYGGEFIQQLKLSMEDSKSPPPKATEEKKSLKRTFQQIQEEEDDDYPGSYSPQDPSAGPLLTEELIKALQDLENAASGDATVRQKIASLPQEVQDVSLLEKITDKEAAERLSKTVDEACLLLAEYNGRLAAELEDRRQLARMLVEYTQNQKDVLSEKEKKLEEYKQKLARVTQVRKELKSHIQSLPDLSLLPNVTGGLAPLPSAGDLFSTD
notes: Expressed from a transfected myc-tagged construct and immunoprecipitated with anti-c-myc antibody; also called R106A mutant K-H; mutant R106A K-H; not shown: myc tag from the pCMV-myc vector
Take B1: the binding result was “no binding”.
